{"source": "the supplement of paper PMC7125110", "parents": {"B1": {"name": "glmS ribozyme (parent)", "chain": "AUAAAAGCGCCAGAACUACAGAAAUGUAGUUGACGAGGAGGAGGUUUAUCGAAUUUUCGGCGGAUGCCUCCAAA"}}, "settings_in_all_cases": "with glucosamine-6-phosphate", "key": {"glucosamine-6-phosphate [1]": {"variants_of": "B1", "experiment": "self-cleavage kobs at 160 uM GlcN6P; higher = faster cleavage; RNA array", "summary_of_the_method": "(§1)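 Glucosamine-6-phosphate, from 40 μM to 10 mM in HEPES/KCl/Mg(OAc)2 buffer, was flowed over sequenced MiSeq chips carrying barcoded ribozyme variants transcribed in situ by E. coli RNA polymerase. A hybridised Cy3 probe tracked the variants at 37 °C as tiles were imaged over ~14 h. kobs, kcat and KM were obtained by fitting normalised per-tile medians to exponential decays and then applying weighted Michaelis–Menten fits across concentrations.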"}, "glucosamine-6-phosphate [2]": {"variants_of": "B1", "experiment": "self-cleavage kobs at 2500 uM GlcN6P; higher = faster cleavage; RNA array", "summary_of_the_method": "as §1"}, "glucosamine-6-phosphate [3]": {"variants_of": "B1", "experiment": "self-cleavage kobs at 640 uM GlcN6P; higher = faster cleavage; RNA array", "summary_of_the_method": "as §1"}, "glucosamine-6-phosphate [4]": {"variants_of": "B1", "experiment": "self-cleavage kobs at 10000 uM GlcN6P; higher = faster cleavage; RNA array", "summary_of_the_method": "as §1"}}, "note": "± gives the standard error. Fewer inactive variants are shown than the library holds.", "data": [{"variant": "AUAAAAGCGCCACAACUACAGAAAUGUAGUUGACGAGGAGGAGGUUUAUCGAAUUUUUUGCGGAUGCCUCCAAA", "values": [{"measurement": "self-cleavage kobs at 160 uM GlcN6P", "setting": "glucosamine-6-phosphate [1]", "result": "< 1e-05", "unit": "s⁻¹"}]}, {"variant": "AUAAACGCGCCAGAACUACAGAAAUGUAGUUGACGAGGCGGAGGUUUAUCGAAUUUUCGGCGGAUGCCUUCAAA", "values": [{"measurement": "self-cleavage kobs at 160 uM GlcN6P", "setting": "glucosamine-6-phosphate [1]", "result": "< 1e-05", "unit": "s⁻¹"}, {"measurement": "self-cleavage kobs at 2500 uM GlcN6P", "setting": "glucosamine-6-phosphate [2]", "result": "< 1e-05", "unit": "s⁻¹"}]}, {"variant": "AUAAAAGCGCCAGAACUACAGAAAUGUAGUUGACGAGGCGGACGUUUAUCGAAUUUUCGGCGGAUGCCUCCAAA", "values": [{"measurement": "self-cleavage kobs at 160 uM GlcN6P", "setting": "glucosamine-6-phosphate [1]", "result": "< 1e-05", "unit": "s⁻¹"}, {"measurement": "self-cleavage kobs at 640 uM GlcN6P", "setting": "glucosamine-6-phosphate [3]", "result": "< 1e-05", "unit": "s⁻¹"}, {"measurement": "self-cleavage kobs at 10000 uM GlcN6P", "setting": "glucosamine-6-phosphate [4]", "result": "< 1e-05", "unit": "s⁻¹"}]}, {"variant": "AUAAAAGCGCCAGAACUACAGAAAUGUAGUUGACGAGAAGGAGGUUUAUCGAUUUUUCGGCGGUUGCCUCCAAA", "values": [{"measurement": "self-cleavage kobs at 160 uM GlcN6P", "setting": "glucosamine-6-phosphate [1]", "result": "< 1e-05", "unit": "s⁻¹"}]}, {"variant": "AUAAAAGCGUCAGAACUACAGAAAUGUAGUUGACGAGGAGGAGGUUUAGCGAAUUAUCGGCGGAUGCCUCCAAA", "values": [{"measurement": "self-cleavage kobs at 160 uM GlcN6P", "setting": "glucosamine-6-phosphate [1]", "result": "< 1e-05", "unit": "s⁻¹"}]}, {"variant": "AUAAAAGGGCCAGAACUACAGAAAUGUAGUUGACGAUGAGGAGGUUUAUCUAAUUUUCGGCGGAUGCCUCCAAA", "values": [{"measurement": "self-cleavage kobs at 160 uM GlcN6P", "setting": "glucosamine-6-phosphate [1]", "result": "< 1e-05", "unit": "s⁻¹"}, {"measurement": "self-cleavage kobs at 640 uM GlcN6P", "setting": "glucosamine-6-phosphate [3]", "result": "< 1e-05", "unit": "s⁻¹"}]}, {"variant": "AUAAAAGCGCCACAACUACAGAAAUGUAGUUGACGAGGAGGAGGUCUAUCGAAUUUUCGGCGGAUGCCUCCAAA", "values": [{"measurement": "self-cleavage kobs at 160 uM GlcN6P", "setting": "glucosamine-6-phosphate [1]", "result": "< 1e-05", "unit": "s⁻¹"}, {"measurement": "self-cleavage kobs at 640 uM GlcN6P", "setting": "glucosamine-6-phosphate [3]", "result": "< 1e-05", "unit": "s⁻¹"}]}, {"variant": "AUAAAAGCGCCAGAACUACAGAAAUGUAGUUGACGAGGUGGAGCUUUAUCGAAUUUUCGGCGGUUGCCUCCAAA", "values": [{"measurement": "self-cleavage kobs at 160 uM GlcN6P", "setting": "glucosamine-6-phosphate [1]", "result": "< 1e-05", "unit": "s⁻¹"}, {"measurement": "self-cleavage kobs at 640 uM GlcN6P", "setting": "glucosamine-6-phosphate [3]", "result": "< 1e-05", "unit": "s⁻¹"}]}, {"variant": "AUAAAAGCACCAGAACUACAGAAAUGUAGUUGACGAGGAGGAGGUUUAUCGGAUUUUCGGCGGAUGCCUCCAAA", "values": [{"measurement": "self-cleavage kobs at 160 uM GlcN6P", "setting": "glucosamine-6-phosphate [1]", "result": "< 1e-05", "unit": "s⁻¹"}, {"measurement": "self-cleavage kobs at 640 uM GlcN6P", "setting": "glucosamine-6-phosphate [3]", "result": "< 1e-05", "unit": "s⁻¹"}, {"measurement": "self-cleavage kobs at 2500 uM GlcN6P", "setting": "glucosamine-6-phosphate [2]", "result": "< 1e-05", "unit": "s⁻¹"}]}, {"variant": "AUAAAAGCGCCAGAACUACAGAAAUGUAGUUGUCGAGGAGGACGUUUAUCGAAUUUUCGGCGGAUGCCUCCAAA", "values": [{"measurement": "self-cleavage kobs at 160 uM GlcN6P", "setting": "glucosamine-6-phosphate [1]", "result": "< 1e-05", "unit": "s⁻¹"}, {"measurement": "self-cleavage kobs at 640 uM GlcN6P", "setting": "glucosamine-6-phosphate [3]", "result": "< 1e-05", "unit": "s⁻¹"}, {"measurement": "self-cleavage kobs at 2500 uM GlcN6P", "setting": "glucosamine-6-phosphate [2]", "result": "< 1e-05", "unit": "s⁻¹"}]}, {"variant": "AUAAAAGCGCCAGAACUACAGAAAUGUAGUUGGCGAGGCGGAGGUUUAUCGAAUUUUCGGCGGAUGCCUCCAAA", "values": [{"measurement": "self-cleavage kobs at 160 uM GlcN6P", "setting": "glucosamine-6-phosphate [1]", "result": "< 1e-05", "unit": "s⁻¹"}, {"measurement": "self-cleavage kobs at 640 uM GlcN6P", "setting": "glucosamine-6-phosphate [3]", "result": "< 1e-05", "unit": "s⁻¹"}, {"measurement": "self-cleavage kobs at 2500 uM GlcN6P", "setting": "glucosamine-6-phosphate [2]", "result": "< 1e-05", "unit": "s⁻¹"}, {"measurement": "self-cleavage kobs at 10000 uM GlcN6P", "setting": "glucosamine-6-phosphate [4]", "result": "< 1e-05", "unit": "s⁻¹"}]}, {"variant": "AUAAAAGCUCCAGAACUACAGAAAUGUAGUUGACGAGGAGGCGGUUUAUCGAAUUUUCGGCGGAUGCCUCCAAA", "values": [{"measurement": "self-cleavage kobs at 160 uM GlcN6P", "setting": "glucosamine-6-phosphate [1]", "result": "< 1e-05", "unit": "s⁻¹"}, {"measurement": "self-cleavage kobs at 2500 uM GlcN6P", "setting": "glucosamine-6-phosphate [2]", "result": "< 1e-05", "unit": "s⁻¹"}]}, {"variant": "AUAAAAGCGCCAGAACUACAGAAAUGUAGUUGGCGAGGAGGAGGUUUAUCGAUUUUUCGGCGGAUGCCUCCAAA", "values": [{"measurement": "self-cleavage kobs at 160 uM GlcN6P", "setting": "glucosamine-6-phosphate [1]", "result": "< 1e-05", "unit": "s⁻¹"}, {"measurement": "self-cleavage kobs at 2500 uM GlcN6P", "setting": "glucosamine-6-phosphate [2]", "result": "< 1e-05", "unit": "s⁻¹"}, {"measurement": "self-cleavage kobs at 10000 uM GlcN6P", "setting": "glucosamine-6-phosphate [4]", "result": "< 1e-05", "unit": "s⁻¹"}]}, {"variant": "AUAAAAGCGCCAGAACUACAGAAAUGUAGUUCACGAGGAGGAGGUUUAUCGAAUUUUCGGCGGAUGCCUCUAAA", "values": [{"measurement": "self-cleavage kobs at 160 uM GlcN6P", "setting": "glucosamine-6-phosphate [1]", "result": "< 1e-05", "unit": "s⁻¹"}, {"measurement": "self-cleavage kobs at 2500 uM GlcN6P", "setting": "glucosamine-6-phosphate [2]", "result": "2.98e-05 ± 1.2e-05", "unit": "s⁻¹"}, {"measurement": "self-cleavage kobs at 10000 uM GlcN6P", "setting": "glucosamine-6-phosphate [4]", "result": "9.6e-05 ± 1e-05", "unit": "s⁻¹"}]}, {"variant": "AUAAAAGCGCCAGAACUACAGAAAUGUAGUUGACGAGGAGGAGCUUUAUCGAAUUUUCGGCCGAUACCUCCAAA", "values": [{"measurement": "self-cleavage kobs at 160 uM GlcN6P", "setting": "glucosamine-6-phosphate [1]", "result": "< 1e-05", "unit": "s⁻¹"}, {"measurement": "self-cleavage kobs at 640 uM GlcN6P", "setting": "glucosamine-6-phosphate [3]", "result": "< 1e-05", "unit": "s⁻¹"}]}, {"variant": "AUAAAAGCGCCAGAACUACAGAAAUGUAGUUGACGCCGAGGAGGUUUAUCGUAUUUUCGGCGGGUGCCUGCAAA", "values": [{"measurement": "self-cleavage kobs at 160 uM GlcN6P", "setting": "glucosamine-6-phosphate [1]", "result": "< 1e-05", "unit": "s⁻¹"}, {"measurement": "self-cleavage kobs at 640 uM GlcN6P", "setting": "glucosamine-6-phosphate [3]", "result": "< 1e-05", "unit": "s⁻¹"}]}, {"variant": "AUAAAAGCGCCAGUAAUACAGAAAUGUAGUUGCCGAGGAGGAGGUUUAUCGAAUUUUCGGCGGAUGCCUCCAAA", "values": [{"measurement": "self-cleavage kobs at 160 uM GlcN6P", "setting": "glucosamine-6-phosphate [1]", "result": "< 1e-05", "unit": "s⁻¹"}, {"measurement": "self-cleavage kobs at 640 uM GlcN6P", "setting": "glucosamine-6-phosphate [3]", "result": "< 1e-05", "unit": "s⁻¹"}]}]}
